{"source": "paper PMC4465062", "binders": {"B1": {"name": "HOXD13 duplex DNA (dsDNA)", "DNA 1": "CAACGTTAAAAC", "DNA 2": "GTTTTAACGTTG"}}, "molecular_target": "HOXD13 DNA binding domain (D13DBD) (Mus musculus, UniProt P70217)", "assay": "NMR"}
{"binder": "B1", "values": [{"measurement": "binding result", "result": "binds"}]}
